Publication PMC11904497

Legend:
[1] = biological target: S2SbHbN, Shewanella benthica strain KT99 TrHbN-2 (UniProt ID: A9DF82) with Cys51Ser and Cys71Ser replacements (Shewanella benthica strain KT99); assay: HP-SAXS (batch SAXS in the high-pressure cell); undiluted sample 10 mg/ml in the high-pressure cell, ambient pressure (0.101 MPa) point of the pressure series; volume-fraction analysis, radius of gyration and molecular mass
[2] = biological target: Y34F S2SbHbN (Shewanella benthica strain KT99); assay: as above

stoichiometry N [1]	stoichiometry N [2]	Substance
4		S2SbHbN, Shewanella benthica strain KT99 TrHbN-2 (UniProt ID: A9DF82) with Cys51Ser and Cys71Ser replacements (natural protein)
	4	Y34F S2SbHbN (natural protein)
